Measured values reported in the supplement of paper PMC9233669.
Fewer inactive variants are shown than the library holds.

Assays:
biotinyl-Phe-oxazolone = experiment: self-aminoacylation, catalytic enhancement (BFO) (fold over background); higher = more active; k-Seq, kA / k0A0; sequences stand for … in GGGAAUGGAUCCACAUCUACGAAUUC…UUCACUGCAGACUUGACGAAGCUG
How it was run: (§1)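 Each biotinyl-aminoacyl-oxazolone, at 2–1250 μM, was incubated with mutagenized RNA pools (0.43 μM) carrying a 21-nt variable region. The 50 μL reactions contained HEPES/NaCl/KCl/MgCl2/CaCl2 buffer with 5% acetonitrile at pH 6.9–7.0 and ran for 90 minutes at room temperature. After streptavidin capture, RNA was measured by qPCR in triplicate and by Illumina sequencing, and catalytic enhancement was calculated as median kA over the uncatalyzed rate from a pseudo-first-order fit of per-sequence fraction reacted.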

biotinyl-Ile-oxazolone = experiment: self-aminoacylation, catalytic enhancement (BIO) (fold over background); higher = more active; k-Seq, kA / k0A0; sequences stand for … in GGGAAUGGAUCCACAUCUACGAAUUC…UUCACUGCAGACUUGACGAAGCUG
How it was run: as §1

biotinyl-Met-oxazolone = experiment: self-aminoacylation, catalytic enhancement (BMO) (fold over background); higher = more active; k-Seq, kA / k0A0; sequences stand for … in GGGAAUGGAUCCACAUCUACGAAUUC…UUCACUGCAGACUUGACGAAGCUG
How it was run: as §1

biotinyl-Val-oxazolone = experiment: self-aminoacylation, catalytic enhancement (BVO) (fold over background); higher = more active; k-Seq, kA / k0A0; sequences stand for … in GGGAAUGGAUCCACAUCUACGAAUUC…UUCACUGCAGACUUGACGAAGCUG
How it was run: as §1

biotinyl-Leu-oxazolone = experiment: self-aminoacylation, catalytic enhancement (BLO) (fold over background); higher = more active; k-Seq, kA / k0A0; sequences stand for … in GGGAAUGGAUCCACAUCUACGAAUUC…UUCACUGCAGACUUGACGAAGCUG
How it was run: as §1

biotinyl-Trp-oxazolone = experiment: self-aminoacylation, catalytic enhancement (BWO) (fold over background); higher = more active; k-Seq, kA / k0A0; sequences stand for … in GGGAAUGGAUCCACAUCUACGAAUUC…UUCACUGCAGACUUGACGAAGCUG
How it was run: as §1

Row | Sequence | self-aminoacylation (biotinyl-Phe-oxazolone) | self-aminoacylation (biotinyl-Ile-oxazolone) | self-aminoacylation (biotinyl-Met-oxazolone) | self-aminoacylation (biotinyl-Val-oxazolone) | self-aminoacylation (biotinyl-Leu-oxazolone) | self-aminoacylation (biotinyl-Trp-oxazolone)
1 | CCACUCUUCGAGCAAUCGGUC [Fam1B.1 aminoacylation ribozyme variant] | 0.996 | 1.19 | 1.03 | 1.24 | 0.964 | 1.32
2 | CCACUUCAAACAAUCCGUCUG [Fam1A.1 aminoacylation ribozyme variant] | 2.13 | 1.08 | 0.967 | 1.01 | 0.795 | 1.85
3 | CCACUUCAAACAAUCGGCCUG [Fam1A.1 aminoacylation ribozyme variant] | 425 | 4.3 | 4.68 | 4.05 | 7.46 | 145
4 | CCACUUCAAACAAUCGGUGUG [Fam1A.1 aminoacylation ribozyme variant] | 12.5 | 1.13 | 1.79 | 1.33 | 2.34 | 9.94
5 | CCACUUCAAACACUCGGUCUG [Fam1A.1 aminoacylation ribozyme variant] | 4.37 | 1.45 | 1.75 | 2.14 | 1.73 | 1.5
6 | CCACUUCAAACCAUCGGUCUG [Fam1A.1 aminoacylation ribozyme variant] | 1.49 | 1.31 | 0.947 | 1.29 | 1.24 | 1.16
7 | CCAGAAUUCAAGCAAUCGGUC [Fam1B.1 aminoacylation ribozyme variant] | 2.26 | 1.91 | 1.65 | 1.6 | 2.3 | 1.81
8 | CCAGACAUCAAGCAAUCGGUC [Fam1B.1 aminoacylation ribozyme variant] | 1.06 | 0.911 | 0.825 | 0.993 | 0.896 | 0.802
9 | CCAGACUUCAAGCAACCGGUC [Fam1B.1 aminoacylation ribozyme variant] | 1.53 | 1.47 | 0.698 | 1.36 | 1.02 | 2
10 | CCAGACUUCAAGCAAUCGGCC [Fam1B.1 aminoacylation ribozyme variant] | 17 | 3.33 | 4.19 | 3.43 | 4.53 | 6.87
11 | CCAGACUUCAAGCAAUCGGUA [Fam1B.1 aminoacylation ribozyme variant] | 1.22 | 1.41 | 1.66 | 1.4 | 1.16 | 1.75
12 | CCAGACUUCAAGCAAUCGGUG [Fam1B.1 aminoacylation ribozyme variant] | 29.2 | 4.56 | 6.21 | 4.1 | 8.51 | 7.25
13 | CCAGACUUCAAGCCAUCGGUC [Fam1B.1 aminoacylation ribozyme variant] | 0.714 | 1.34 | 1.17 | 1.46 | 1.24 | 1.33
14 | CCAUACUACAAGCAAUCGGUC [Fam1B.1 aminoacylation ribozyme variant] | 0.942 | 0.884 | 0.696 | 0.779 | 0.772 | 0.655
15 | CCAUACUUAAAGCAAUCGGUC [Fam1B.1 aminoacylation ribozyme variant] | 0.813 | 0.92 | 0.804 | 0.904 | 0.802 | 0.674
16 | CCAUACUUCAAGAAAUCGGUC [Fam1B.1 aminoacylation ribozyme variant] | 5.18 | 0.907 | 0.777 | 0.787 | 0.87 | 4.39
17 | CCAUACUUCAAGCAAGCGGUC [Fam1B.1 aminoacylation ribozyme variant] | 0.737 | 1.09 | 0.775 | 1.03 | 0.875 | 0.726
18 | CCAUACUUCAAGCAAUCGGAC [Fam1B.1 aminoacylation ribozyme variant] | 1.21 | 1.01 | 1.17 | 1.06 | 0.856 | 0.768
19 | CCAUACUUCAAGCAAUCGGUU [Fam1B.1 aminoacylation ribozyme variant] | 3.48 | 1.61 | 1.17 | 1.71 | 1.61 | 2.98
20 | CCAUACUUCAAGCAAUGGGUC [Fam1B.1 aminoacylation ribozyme variant] | 0.918 | 1.04 | 0.972 | 1 | 0.926 | 0.627
21 | CCAUACUUCAAGCACUCGGUC [Fam1B.1 aminoacylation ribozyme variant] | 1.11 | 1.01 | 0.904 | 1.07 | 0.962 | 0.69
22 | CCAUACUUCAAGCUAUCGGUC [Fam1B.1 aminoacylation ribozyme variant] | 0.984 | 1.05 | 0.801 | 1.09 | 0.952 | 0.697
23 | CCAUACUUCAAGGAAUCGGUC [Fam1B.1 aminoacylation ribozyme variant] | 3.91 | 0.976 | 1.06 | 0.934 | 1.07 | 3.57
24 | CCCAACUUCAAGCAAUCGGUC [Fam1B.1 aminoacylation ribozyme variant] | 78.4 | 1.56 | 1.49 | 1.74 | 2.34 | 40.9
25 | CCCCACCUCAAGCAAUCGGUC [Fam1B.1 aminoacylation ribozyme variant] | 5.97 | 1.73 | 1.48 | 2.2 | 1.48 | 4.87
26 | CCCCACUUCAAGCAAUCGGAC [Fam1B.1 aminoacylation ribozyme variant] | 2.8 | 1.45 | 1.44 | 1.52 | 1.19 | 2.45

Row | Sequence | self-aminoacylation (biotinyl-Phe-oxazolone) | self-aminoacylation (biotinyl-Ile-oxazolone) | self-aminoacylation (biotinyl-Met-oxazolone) | self-aminoacylation (biotinyl-Val-oxazolone) | self-aminoacylation (biotinyl-Leu-oxazolone) | self-aminoacylation (biotinyl-Trp-oxazolone)
27 | CCCCACUUCAAGCAAUCGGCC [Fam1B.1 aminoacylation ribozyme variant] | 20.8 | 2.74 | 3.04 | 3.8 | 2.75 | 11.3
28 | CCCCACUUCAAGCAAUCGGUG [Fam1B.1 aminoacylation ribozyme variant] | 75.4 | 6.57 | 11 | 7.84 | 13.9 | 12.5
29 | CCCCACUUCAAGCAAUCGGUU [Fam1B.1 aminoacylation ribozyme variant] | 12.7 | 2.66 | 3.35 | 3.68 | 4.7 | 16.9
30 | CCCCACUUCAAGCAAUCGUUC [Fam1B.1 aminoacylation ribozyme variant] | 1.77 | 0.898 | 0.697 | 0.849 | 0.697 | 1.12
31 | CCCCACUUCACGCAAUCGGUC [Fam1B.1 aminoacylation ribozyme variant] | 7.33 | 2.06 | 2.31 | 2.61 | 2.44 | 4.55
32 | CCCCACUUCAGGCAAUCGGUC [Fam1B.1 aminoacylation ribozyme variant] | 9.29 | 2.56 | 2.35 | 2.64 | 2.63 | 5.21
33 | CCGCACUACAAGCAAUCGGUC [Fam1B.1 aminoacylation ribozyme variant] | 1.55 | 1.33 | 0.932 | 1.32 | 1.02 | 1.36
34 | CCGCACUUCAACCAAUCGGUC [Fam1B.1 aminoacylation ribozyme variant] | 148 | 2.09 | 2.05 | 2.38 | 3.41 | 67.5
35 | CCGCACUUCAAGCAAUCGGAC [Fam1B.1 aminoacylation ribozyme variant] | 1.31 | 1.07 | 1 | 1.12 | 0.812 | 1.86
36 | CCGCACUUCAAGCGAUCGGUC [Fam1B.1 aminoacylation ribozyme variant] | 2.22 | 1.34 | 1.53 | 1.8 | 1.3 | 4.81
37 | CCUAACUUCAAGCAAUCGGUC [Fam1B.1 aminoacylation ribozyme variant] | 46.5 | 1.18 | 1.02 | 1.01 | 1.54 | 19.9
38 | CCUCACUCCAAGCAAUCGGUC [Fam1B.1 aminoacylation ribozyme variant] | 5.18 | 1.03 | 0.767 | 0.947 | 0.915 | 2.39
39 | CCUCACUGCAAGCAAUCGGUC [Fam1B.1 aminoacylation ribozyme variant] | 1.44 | 1.26 | 0.832 | 1.41 | 1.24 | 1.17
40 | CCUCACUUCAAGGAAUCGGUC [Fam1B.1 aminoacylation ribozyme variant] | 6.28 | 0.76 | 0.946 | 0.869 | 0.936 | 4.27
41 | CCUCACUUCAUGCAAUCGGUC [Fam1B.1 aminoacylation ribozyme variant] | 1.17 | 0.734 | 0.642 | 0.773 | 0.735 | 0.804
42 | CCUCAUUUCAAGCAAUCGGUC [Fam1B.1 aminoacylation ribozyme variant] | 5.96 | 1.11 | 1.07 | 1.05 | 1.08 | 2.75
43 | CCUGACUUCAAGCAAUCGGUC [Fam1B.1 aminoacylation ribozyme variant] | 45.6 | 1.22 | 1.17 | 1.35 | 1.63 | 23.1
44 | CCUUACUUCAAGCAAUCGGUC [Fam1B.1 aminoacylation ribozyme variant] | 31.6 | 1.09 | 1.06 | 1.08 | 1.3 | 13
45 | CGACACUCCAAGCAAUCGGUC [Fam1B.1 aminoacylation ribozyme variant] | 0.914 | 1.11 | 0.665 | 1.11 | 0.842 | 1.19
46 | CGACACUUCAAGCAAUUGGUC [Fam1B.1 aminoacylation ribozyme variant] | 0.985 | 0.908 | 0.864 | 0.718 | 0.668 | 0.777
47 | CGACACUUCAAGCACUCGGUC [Fam1B.1 aminoacylation ribozyme variant] | 1.46 | 1.28 | 1.38 | 1.32 | 1.3 | 2
48 | CGACACUUCAAGCAGUCGGUC [Fam1B.1 aminoacylation ribozyme variant] | 1.04 | 1.25 | 1.64 | 0.99 | 1.23 | 1.74
49 | CGACACUUCAAGUAAUCGGUC [Fam1B.1 aminoacylation ribozyme variant] | 3.36 | 1.69 | 1.5 | 1.47 | 1.16 | 2.28
50 | CGACACUUCAAUCAAUCGGUC [Fam1B.1 aminoacylation ribozyme variant] | 14.7 | 1.04 | 0.958 | 1.05 | 1.15 | 7.59
51 | CGACACUUCAUGCAAUCGGUC [Fam1B.1 aminoacylation ribozyme variant] | 1.34 | 1.05 | 0.971 | 1.17 | 0.932 | 0.973
